Results: the DeepSol protein solubility set

assay: soluble on expression in E. coli; label from the status in PepcDB or PDB records

Sequence | soluble on expression in E. coli
MPLELTQSRVQKIWVPVDHRPSLPRSCGPKLTNSPTVIVMVGLPARGKTYISKKLTRYLNWIGVPTKVFNVGEYRREAVKQYSSYNFFRPDNEEAMKVRKQCALAALRDVKSYLAKEGGQIAVFDATNTTRERRHMILHFAKENDFKAFFIESVCDDPTVVASNIMEVKISSPDYKDCNSAEAMDDFMKRISCYEASYQPLDPDKCDRDLSLIKVIDVGRRFLVNRVQDHIQSRIVYYLMNIHVQPRTIYLCRHGENEHNLQGRIGGDSGLSSRGKKFASALSKFVEEQNLKDLRVWTSQLKSTIQTAEALRLPYEQWKALNEIDAGVCEELTYEEIRDTYPEEYALREQDKYYYRYPTGESYQDLVQRLEPVIMELERQENVLVICHQAVLRCLLAYFLDKSAEEMPYLKCPLHTVLKLTPVAYGCRVESIYLNVESVCTHRERSEDAKKGPNPLMRRNSVTPLASPEPTKKPRINSFEEHVASTSAALPSCLPPEVPTQLPGQNMKGSRSSADSSRKH | soluble
MPLLDIRHLTIEIDTPQGLVKAVDRMSLTMNEGEIRGLVGESGSGKSLVAKAIVGICKENWRVTADRMRLGNIDLLQLTPRERRRVIARDVAMIFQEPSTCLDPSEEVGRQLIESIPFRTFEGRWWERFTWRKKQAIALLHKVGIKDHKDIMSSYPYELTDGECQKVMIAMAIAAKPKLLIADEPTNDVDPITQSQILRLLSRMNQVNNTSILLIGHDLTTITQWADRITVMYCGQSVESAETAKIVAEPKHPYTAALLKAMPDFSDWIPHKQKLQSLPGSIPPLQHLPIGCRLGPRCPYAQRQCVEVPHSRWVKNHKFSCHFPLNMESPQ | not soluble
MPLLDSFTVDHTRMNAPAVRVAKTMQTPKGDTITVFDLRFTMPNKDILSERGIHTLEHLYAGFMRNHLNGSQVEIIDISPMGCRTGFYMSLIGAPTEQQVAQAWLAAMQDVLKVESQEQIPELNEYQCGTAAMHSLEEAKAIAKNVIAAGISVNRNDELALPESMLNELKVH | not soluble
MPLMRAIGVIRKSRGERWSREEFEELLRSAGYEILAIVEQVREEHPRYNIGPGKLEEVKKLVKELKPDKVIFANRLTPSQAYNLWKELRVDIIDKWQLVLEIFEKRAHSKEAKLQVELANLQYELPLVKEAIRRIKMGDRAGFKGMGEYQVHQYLKHIKYRMGRIKGELEKIRAEREIRRKKREEEGFVLIALAGYTNAGKSTLLNALTGEDIEAKNQMFTTLDTTTRRFKVKGKMLLVTDTVGFIDGLPPFIVEAFHSTLEEIVKADIIILVLDASEPWKEIRRKLFASLNVLRELKALDRPMIVALNKVDLISDEDAKEKELLVRETIDGRANTVGVARISAKLNQLEELYNLIEVALSRLPKFQTFEIRVKDPSKLGKVLSMVHSMGDLLEVEYSEETKIKAYIQTGLIRELTKLGVSLKRISLEHHHHHH | not soluble
MPLPMNSGEKVKAVGRSYNPGRPLCLEDRKKIVRLYEEGCRVSHIARLIGVTHSCVSKIMSRYRRTGSVQPRSFRATENQENDNATWQQQQLKQQQKKEKPLPFSIERF | soluble
MPLSQEESTLIERATATINSIPISEDYSVASAALSSDGRIFTGVNVYHFTGGPCAELVVLGTAAAAAAGNLTCIVAIGNENRGILSPCGRCRQVLLDLHPGIKAIVKDSDGQPTAVGIRELLPSGYVWEG | soluble
MPLTPLHQVELRLMRTVIAICEAENIDYFLIGGSLLGAIRHHGFIPWDDDIDIGMRRHDYQRFIAVANHHLDPNKFFLQTGASDPDYALSYMKLLDVNTYIEERNNVNNAFKGVFVDIFPFDKIPDDEALRRSQMLHYKLADAAILLKLNYRFVKTPLRNLITKHTPQQLAEVNRYKLEREEYMRLYEQSDSRTYKNLASQYDYEKEIMTYQELTELTTVPFEDIQVKIPSAYDTILTRMYGDYMQLPPADKRVEKHLNKLIIDNHEILLEHHHHHH | not soluble
MPLTTNTILICAGGACISAGEKSVKDAFEEELRKYGLDEVVRVIETGCMGACTLGPIAVIYPESVFYQKLTPDAAREIVEEHILKGRIVEKYLYKASEGKPVPRVHEEVPFFKKQVRIVTRNLGVIDPTKIEEYIARDGYFALAKALQMKPEDVIKEIKDSGLRGRGGAGFPTGLKWELAARQKAEKKFVVCNADEGDPGAFMDRSVLEGDPHAVIEGMAIAAYAIGAQKGFVYVRAEYPLAIERLNIALNQAREYGFLGGNIMGTDFSFDIEIRIGAGAFVCGEETALMASIEGERGQPKVKPPYPVEKGLWGYPTVINNVETLANVPWIIRNGAKEFRKYGTENSPGTKVFALAGKVKNTGLVEVPMGITLRELIYEIGGGIAGDKKLKAIQTGGPSGGCIPAEYVDTPVDFESLQKLGAIMGSGGMIVMDEDDCMVDVARFFLEFTVEESCGKCTPCREGTKKMLEILEKITSGEGTEEDIEELEKLAHVVKDTSLCGLGQTAPNPVLSTLRYFRDEYLAHVKEKRCPSKKCKALISYVIDPEKCVGCTACARVCPVQCISGQVRQPHVIDQAECVRCGSCIEVCRFGAISKVTPALPVEEAVEAAALEHHHHHH | not soluble
MPMKEFPGLFLWKMWSLDKKKENMLKTHDPGISRLEPVTKTKPWREPLWERNWQGQHLDSRGYLAGPGREDGRNPLKLFVRATLQESLQFHRPDFISHIWERIKRLKLIVQERKLQSMLKSERDALFDIDRERQGHQNRMRPLPKRVFLAVQKNKPISKKEMIQRSKRTHAGGTVAQRLPGALWVKERLPGKGEKHPGIPVTSGSSTQTM | not soluble
MPMSTDVQGRALAVLNRVAQADWPDRFNLRKPFEKLLYSGSRTGFRLASERSAKQAKGPRKADPDGLFDLSFSDDQQMLVDMLEGFALEVLRPLAHDADAEASLPAELLNQALELGLTHYGVGEVHGGMAGERTTVTTALIAEALAKGDLTLAAALLVPLSAANCIRRWGSPSQQAQWLPAFVSEEGAPLTAIAVNEPSLLFDPQKLATRARRKGSHYLLSGEKCLVLRGLEASRLIVAAKTDEGPALFLVEASAKGVERRAEPAMGLKAGGTARLRLKSVKVPADNRLAAEHFDYRAFLDHASLAWCALALGTGQAALDYVIAYCNEREAFGEPISHRQGVAFMVADIAIELDAMRLMVWRACALAERGQPFQREAYLARLLCAEKAMKIGTDAVQLLGGHGFT | not soluble
MPNDIENGTVIPPRRGVVWKIEEKELQGFAIPFPGADLSVMVRSQYYDATVRKSRPVHLSSYFQLDTRFKTYRLILWGAITRAFALASFTRRILLKYPDQCSFRMFKKSGPSAQQIAEASFTYWFFGYGYKETIPLDQQHERKVDRKVVATCKGPDLAYMAASGCVLSAALALVKDKNNLPKEGGVYTPAAAFGDSKIYDYLATFGINFHLESEYDL | not soluble
MPNDLPFDLRPSRRTVTMGLAAGVAAALLPWRAQALDTGTARALVVEAVAQVNRTINSGKSEGQMYADFERLFARYADVPAIARTALGVAARSASRQEISAFTQAYQGYIARKYGKRFREFIGSEIKVNDARPMKSAVEVISTAYLRNENPFEVRWHVSDRSGRPAFFNIIIEGVNMLASERAEVGALLDRNRGSIPALTEQLRRASLEHHHHHH | not soluble
MPNKNGVGKKSPSTSKSSNNNKRREPEFRYEEKTAVHGGKTKYEEKTVVHGGKTKNVVAKKVPSKASVIVDKKASTTETTVPITVKKSLLSISTAYDRTVTEEKEKEKPKKKEKEKWSGEEASIKFVKSLGSINLKDEYDEIQKLPVQTERCKMWQSHSSRNRHNDSKCYDHNRIIVQMCKDDYINGSKINVPHFTPSIYLVQLPKMDSVDAVEEFWRVVFHEQCQTVHIIARPEELTNPAIDKLFCQESGAWLYANGFFVNTRKVEKKENAKADMFVVELLPEGCSNAVMCSVYLHTYWKPLFGPDRFGAQIRAAHQIAKNENGNSPTVIASVNGSGRNAALLTLAVVEDQLTRGKEPKISEIVRTIREQRPQSVDSYIQYVSLYMATNWLIKTKLPSGHEVVSKIKKFNEKATRSLPGSMMKTPTEEL | not soluble
MPNLPALPDMGLPVVTSDLTATLLPGVASPIVPGQPIEQAFSSILISMMKSDQAIEDDTENPAPVSIDALIAGMIAAPANPPQLVPSQPAPDALDTPNAPDAPAEELLSMLATSMMPNTGQPVTDEPVTFPAGGLASATPPNLPSDSGRHAADPLQTTSQAHAAPLPAELPAGNISTSTPFPAPVNSFNQAIDAANFADSGKSLPPSMTSVPVTPVAAHTSSTPLTDIAADTTANDAPAIAAEFGQPDWPEEFGRKITWLATQRMQAAELKLHPAHLGPIEISLQLSDDQRLTAQFISHHPAVREAIEANLPRLREIMAENGITLADTSVSADTPGQQAENRQGSPFRRPAAGDHSTYDSTSPQTPALQATRRSSLIDTFA | not soluble
MPPEIMRFKERLEEAMNGESSRAFAAKCGLSDGVIRNYLSGKTYPSLDRLAQIAYATGRPIEWFIQSQSMPMVEHKNNQENKNSQPDRSTLKTKLIAIVELLEDKELHSAIELFRKKGFEALMPEIFSSDDSIQADLQGISQQTLQTAKMLESLPTDTRKKILSKYGIYEQEGLVAPSQEPQDVKKAV | not soluble
MPPGKCLFSGVFCNMAEKQTAKRNRREEILQSLALMLESSDGSQRITTAKLAASVGVSEAALYRHFPSKTRMFDSLIEFIEDSLITRINLILKDEKDTTARLRLIVLLLLGFGERNPGLTRILTGHALMFEQDRLQGRINQLFERIEAQLRQVLREKRMREGEGYTTDETLLASQILAFCEGMLSRFVRSEFKYRPTDDFDARWPLIAAQLQ | not soluble
MPPGKNFRRRKEDSSDEEDDETKFVVRSKLDEAKELQSLRKRQHGVSIATLLVGEKLPLEAELEDDPFKLKTGGVVDMKKVKDRSRDMTVDENDLNLGTSFSAETNRRDEDADMMKYIETELKKKKGMVEAEEQKVKVKNPEDLLYELPENINVSSAKKTEEMLSNQMLSGIPEVDLGIDAKIKNIINTEEAKAKLLAEQRNKKKDSGTSFVPTNIAVNYVQHNRFYHEDSNAPQRRNREEPKARPLRVGDTEKPAPEASPPNFRKRPNNEKATDDYHYEKFKKMNRRY | soluble
MPPLTHQSLKCVIKHLEANARIQLSQRCPSLHKTEKLIPLTIYNLELDQCSVKINNTDYSLTLTSNNFSSPFDLDQFGAIDLDEVDVDGNDVLVDNRSFKEEKNRLLRMRIEIRKMPDGVEKQEATAAVVALEQLEDNRWLRREPTSSSMMNLSINSQFIIFRGEKLCYNMKLHQAFRYLVAKLFSGRRCPIQVKKLSVECKGILRVPADLRFKVSHLEILGSGVDKIVEAFKPLIGRIQTITVNDDFNISHPIFQTALILKNPNENLFGAASASNVRVENNEQFSSLSERVVDLIRIWQSHGHKIGTIWNFSMRSQEQALDSIMYLRRQLGASFSGHKNLSQYGRSAAISLNNSDEIYVSFKQQQIKVWNLKVVVRRKRL | not soluble
MPQDYISYIRSKVGHDKIILNFAGGILTNDDGKVLMQLRGDKKTWTIPGGTMELGESSLETCKREFLEETGIEVEAVRLLNVYTHFEEVYPNGDAVQTIVFIYELTAVSDMAIDNFHNEETLKLQFFSHEEIAELESVSAKHRLMLEEYFSDSFAMGH | not soluble
MPQFSNRRRVPHSAQQMFDLVADVERYPQFVPLCKALKIRERIQQPDGNEVVIADMTVSFKLVQETFTSRVTLDRANLKILVEYLKGPFSNLENRWTFAAKTERACEVGFFIAYEFKSRMLATLMGAMFDTAFHRFAEAFETRADQIYGTGPKLSRALEHHHHHH | not soluble
MPQIQSSHSNHFDFTIDTADRTKLLMSYLVVPTTANFNNVMHGGELLNLLDKVAYVCSTRYCAKGTVTLSVDGVTFKYPIPVGNLLTFLASINYVGNTSCEVGIKVLSEDIKTREITHTNSCYFTMVAVENGKPTPMPKYEPKTEVEIRRYEGALKRKEMRTRGYLKSGKHEGVLEHHHHHH | not soluble
